These results are taken from publication PMC3478262.

Broadly, the stoichiometry N is a count of units in the complex or per binding partner.

This assay has as its target Rv0132c–Δ38 protein (Mycobacterium tuberculosis H37Rv) (UniProt P96809). Briefly: SEC. (In gel filtration, larger molecules generally elute earlier.)

For the substance “Rv0132c–Δ38 protein (from UniProt P96809 39-360) (domain or fragment)”, the stoichiometry N turned out to be 2.
